Measurements: patent US20240076361A1

Target: Tau from human Alzheimer's Disease brain lysate (Braak stage VI) (human), P10636
Experiment: ELISA on Tau captured from AD brain lysate, curve without blocking peptide
Conditions: remark: other sources report otherwise

Chain of Tau from human Alzheimer's Disease brain lysate (Braak stage VI) (human), P10636 (P10636 other isoform, or with tags, fused parts or gaps limits assumed): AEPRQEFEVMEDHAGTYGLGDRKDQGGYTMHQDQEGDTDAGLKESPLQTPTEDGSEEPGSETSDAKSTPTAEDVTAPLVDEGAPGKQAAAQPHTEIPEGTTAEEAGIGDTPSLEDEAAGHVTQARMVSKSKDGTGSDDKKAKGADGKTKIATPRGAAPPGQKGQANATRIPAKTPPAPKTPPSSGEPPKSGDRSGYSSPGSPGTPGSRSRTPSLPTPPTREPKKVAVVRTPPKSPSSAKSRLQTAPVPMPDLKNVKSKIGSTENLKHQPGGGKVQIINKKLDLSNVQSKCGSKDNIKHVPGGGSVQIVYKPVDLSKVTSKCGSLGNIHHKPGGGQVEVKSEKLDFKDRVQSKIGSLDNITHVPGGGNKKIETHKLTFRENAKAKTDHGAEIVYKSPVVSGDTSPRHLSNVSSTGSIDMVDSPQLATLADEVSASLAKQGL

B1: PT3 comparator antibody (antibody)
chain 1: EVKLVESGGDLVKPGGSLKLSCAASGFTFSSYAMSWVRQNPEKRLEWVASISKGGNTYYPNSVKGRFTISRDNARNILYLQMSSLRSEDTALYYCARGWGDYGWFAYWGQVTLVTVSA
chain 2: DIKMTQSPSSMYASLGERVTITCKASQDINRYLNWFQQKPGKSPKTLIYRANRLLDGVPSRFSGSGSGQDYSLTISSLDYEDMGIYYCLQYDEFPLTFGDGTKLELK
modifications: here or on the partner: native phosphorylation and other post-translational modifications, not defined
EC50 (read off the curve): 0.02 nM
